Test results from patent publication US20180066318A1 (INSTITUT PASTEUR, published 2018).

Molecular target: T1, in vitro translated HA-tagged NEMO (UniProt Q9Y6K9 1-419)
T1 construct: Negative control in the pull-down; made in TNT reticulocyte lysate; also called HA-NEMO; not shown: HA tag
Assay: GST pull-down of in vitro translated protein, anti-HA blot
Description: FIGS. 1a-1d: binding of CARMA1 SH3 domain to E-Syt2. GST pull-down assays show direct interaction between E-Syt2 and SH3 domains. Schematic representation of CARMA1 (a) and E-Syt2 (b) mutant constructs. (c) upper panel: pull-down assays of the interactions between CARMA1 SH3 domain (GST-SH3c), Vav SH3 domain (GST-SH3v) or GST and in vitro translated HA-tagged E-Syt2, or NEMO in TNT® reticulocytes lysate systems. Ten percent of the input TNT lysates was also run on the PAGE and immunoblot with anti-HA to determine the relative binding capacity. […] Jurkat T cells were incubated with Raji B cells and coated with medium alone or with SEE. At 10 minutes, cells were fixed and E-SYT2 localized by immunofluorescence and confocal microscopy, using anti-A-SYT2 antibody, as described in the experimental procedure. The corresponding Nomarski images are shown on the bottom panels. Scale Bars represent 1 μm. (d) ESYT2 localized in microclusters Jurkat cells were settle onto glass coverslips coated either with anti-CD3, anti-CD28 or both and fixed 5 min of stimulation. The images of E-Syt2, PKCθ and TCT staining were taken by confocal microscopy.

T1 sequence (Q9Y6K9 whole entry): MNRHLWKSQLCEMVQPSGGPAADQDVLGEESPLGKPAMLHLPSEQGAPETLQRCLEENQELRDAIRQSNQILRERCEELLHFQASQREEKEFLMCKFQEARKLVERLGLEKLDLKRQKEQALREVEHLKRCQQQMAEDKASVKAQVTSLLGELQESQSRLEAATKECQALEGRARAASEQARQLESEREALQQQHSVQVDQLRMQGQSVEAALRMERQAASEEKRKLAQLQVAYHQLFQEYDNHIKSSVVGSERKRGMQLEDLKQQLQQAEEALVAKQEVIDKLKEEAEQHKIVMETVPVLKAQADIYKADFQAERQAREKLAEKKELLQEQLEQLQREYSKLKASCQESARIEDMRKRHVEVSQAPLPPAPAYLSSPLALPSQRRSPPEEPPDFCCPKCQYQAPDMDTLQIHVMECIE

B1: GST fused to the Vav SH3 domain (GST-SH3v) (other, UniProt P15498 782-845, looked up)
chain: KYFGTAKARYDFCARDRSELSLKEGDIIKILNKKGQQGWWRGEIYGRVGWFPANYVEEDYSEYC
notes: domain: SH3 (C-ter Vav); also called pGEX-4T-SH3 (C-ter Vav); not shown: glutathione S-transferase of vector pGEX-4T
B1: no binding.
